Laboratory results reported in ChEMBL document CHEMBL5678797, “AZD7762, a novel checkpoint kinase inhibitor, drives checkpoint abrogation and potentiates DNA-targeted therapies” (Mol Cancer Ther, 2008).

Substrate: NC(=O)Nc1cc(-c2cccc(F)c2)sc1C(=O)N[C@H]1CCCNC1
Conditions: Homo sapiens; Insect cell; time 20.0 min

B1: Serine/threonine-protein kinase Chk1 (Homo sapiens), O14757 (protein)
chain: MAVPFVEDWDLVQTLGEGAYGEVQLAVNRVTEEAVAVKIVDMKRAVDCPENIKKEICINKMLNHENVVKFYGHRREGNIQYLFLEYCSGGELFDRIEPDIGMPEPDAQRFFHQLMAGVVYLHGIGITHRDIKPENLLLDERDNLKISDFGLATVFRYNNRERLLNKMCGTLPYVAPELLKRREFHAEPVDVWSCGIVLTAMLAGELPWDQPSDSCQEYSDWKEKKTYLNPWKKIDSAPLALLHKILVENPSARITIPDIKKDRWYNKPLKKGAKRPRVTSGGVSESPSGFSKHIQSNLDFSPVNSASSEENVKYSSSQPEPRTGLSLWDTSPSYIDKLVQGISFSQPTCPDHMLLNSQLLGTPGSSQNPWQRLVKRMTRFFTKLDADKSYQCLKETCEKLGYQWKKSCMNQVTISTTDRRNNKLIFKVNLLEMDDKILVDFRLSKGDGLEFKRHFLKIKGKLIDIVSSQKIWLPAT
  Km: 80 µM
